In patent publication US20050260683A1, “Methods for diagnosing and treating pre-term labor” (University of Hawaii, priority 2002, published 2005):
Entries after “also recorded” stand apart in the source; their conditions may differ.

How the values were obtained:
Assay type in all cases: cell-based, human
[1] = system: IL-8 gene expression in fetal membrane explants; assay: rhPBEF treatment of fetal membrane explants, IL-8 gene expression by Northern analysis; conditions: rhPBEF 100 ng/ml, 4 h, vs control
Source text: (§1) elective term Cesarean section without labor (n=7). For the Northern analysis of IL-6 and IL-8 gene expression after rhPBEF treatment, fetal membranes from elective term Cesarean sections before labor (37-40 weeks gestation, n=6) were collected and cut into 3×3 cm explants. None of the preterm or term patients or tissues had any clinical or histological signs of chorioamnionitis. The placentas and membranes were examined by a pathologist for histological evidence of infection using the criteria of Naeye (see Naeye R I. “Disorders of the placenta, fetus and neonate: diagnosis and clinical significance.” St Louis: C U Mosby; 1992. p.258) and all tissues with any sign of infection were excluded from this study.
(§2) Total RNA was extracted (see Chomzynski and Sacchi, supra) and MRNA prepared as previously described (see Aviv and Leder, supra). Samples of MRNA (10-20 μg) were electrophoresed, and the RNA transferred to a nylon membrane (Magna Graph, MSI, Westborough, Mass.) as previously described (see Ognjanovic et al., supra). The cDNA probes were labeled using the Random Primed DNA labeling kit and following the manufacturer's instructions (Invitrogen, Carlsbad, Calif.). The filters were hybridized at 68° C. for 1 h using Express Hyb solution (Clontech, Palo Alto, Calif., USA). A final wash stringency of 0.1×SSC, 0.1% SDS was performed at 50° C. Filters were deprobed in 0.5% SDS for 10 min at 100° C. and re-hybridized sequentially with cDNA probes to PBEF, IL-6 and IL-8 and finally with a human glyceraldehyde-3 phosphate dehydrogenase (G3PDH) cDNA probe (Clontech), as an internal standard. The Northern blot was quantitated with a Phospholmager (Amersham Pharmacia Biotech, Piscataway, N.Y.), using the G3PDH value for each sample to standardize sample loading. Results were expressed as a ratio to G3PDH. Statistical analysis was performed using the Tukey-Kramer multiple comparison test.
Each fetal membrane was cut into several 3×3 cm explants. […]

[2] = system: IL-8 gene expression in amniotic epithelial (WISH) cells; assay: rhPBEF treatment of WISH cells, IL-8 gene expression by Northern analysis; conditions: rhPBEF 100 ng/ml, 4 h
Procedure: as §2, with “Statistical analysis was performed using the Tukey-Kramer multiple comparison test.” left out
The amnion-like epithelial (WISH) cells were obtained from American Type Culture Collection (ATCC# CCL-25) (ATCC, Manassas, Va.). […] The concentration of rhPBEF was determined using the BioRad protein assay and 1, 10 and 100 ng/ml was added to the cells for 4 and 24 h. […]

[3] = system: IL-6 gene expression in fetal membrane explants; assay: rhPBEF treatment of fetal membrane explants, IL-6 gene expression by Northern analysis; conditions: rhPBEF 100 ng/ml, 4 h, vs control
Source text: as §1
Total RNA was extracted (see Chomzynski and Sacchi, supra) and MRNA prepared as previously described (see Aviv and Leder, supra). Samples of MRNA (10-20 μg) were electrophoresed, and the RNA transferred to a nylon membrane (Magna Graph, MSI, Westborough, Mass.) as previously described (see Ognjanovic et al., supra). The cDNA probes were labeled using the Random Primed DNA labeling kit and following the manufacturer's instructions (Invitrogen, Carlsbad, Calif.). […] The Northern blot was quantitated with a Phospholmager (Amersham Pharmacia Biotech, Piscataway, N.Y.), using the G3PDH value for each sample to standardize sample loading. Results were expressed as a ratio to G3PDH. […]

[4] = system: IL-8 protein in WISH cell culture media; assay: rhPBEF treatment of WISH cells, IL-8 protein in media by ELISA; conditions: rhPBEF 10 ng/ml, 4 h
Procedure: The amnion-like epithelial (WISH) cells were obtained from American Type Culture Collection (ATCC# CCL-25) (ATCC, Manassas, Va.). WISH cells were cultured in Dulbecco's Modified Eagle Medium:Ham F-12 (DMEM:F12) (1:1) supplemented with 10% fetal bovine serum (FBS) (Life Technologies, Grand Island, N.Y.), penicillin (50 U/ml)-streptomycin (50 μg/ml) and incubated at 37° C. in 5% CO2/95% air. After reaching confluency, the cells were trypsinized and plated into 6-well culture dishes at a density of 1×10^5 cells in 4 ml media. After 48 h or when the cells reached 80% confluency, the growth medium was replaced with minimal media (0.5% FBS and 0.2% lactalbumin in DMEM:F12) and incubated for 12 h. Treatment of the cells began with addition of rhPBEF prepared in minimal media. The concentration of rhPBEF was determined using the BioRad protein assay and 1, 10 and 100 ng/ml was added to the cells for 4 and 24 h. […]
The IL-8 enzyme-linked immunosorbent assay (ELISA) kit was purchased from R&D Systems (Minneapolis, Minn.) and used to determine the IL-8 protein concentration in the culture supernatants following the manufacturer's protocol. […] The basal levels of IL-6 protein in conditioned media of WISH cells were reported to be at the limit of sensitivity of ELISA (see Keelan et al., supra) and could not be considered reliable, therefore the levels of IL-6 protein were not measured.

[5] = system: IL-6 gene expression in amniotic epithelial (WISH) cells; assay: rhPBEF treatment of WISH cells, IL-6 gene expression by Northern analysis; conditions: for increase in IL-6 gene expression: 4 h, vs control
Procedure: as §2
The amnion-like epithelial (WISH) cells were obtained from American Type Culture Collection (ATCC# CCL-25) (ATCC, Manassas, Va.). WISH cells were cultured in Dulbecco's Modified Eagle Medium:Ham F-12 (DMEM:F12) (1:1) supplemented with 10% fetal bovine serum (FBS) (Life Technologies, Grand Island, N.Y.), penicillin (50 U/ml)-streptomycin (50 μg/ml) and incubated at 37° C. in 5% CO2/95% air. After reaching confluency, the cells were trypsinized and plated into 6-well culture dishes at a density of 1×10^5 cells in 4 ml media. After 48 h or when the cells reached 80% confluency, the growth medium was replaced with minimal media (0.5% FBS and 0.2% lactalbumin in DMEM:F12) and incubated for 12 h. Treatment of the cells began with addition of rhPBEF prepared in minimal media. The concentration of rhPBEF was determined using the BioRad protein assay and 1, 10 and 100 ng/ml was added to the cells for 4 and 24 h. Treatment was carried out in triplicate and each experiment was performed at least three times on different occasions. Controls received minimal media containing 0.5% bovine serum albumin (15 μl) in phosphate buffer saline (PBS). […]
In addition to fetal membrane explants, the amniotic epithelial cell line, WISH cells, were also used to study the effects of PBEF on the expression of IL-6 and IL-8. The expression of the IL-6 and IL-8 genes were quantitated by Northern blotting using total RNA isolated from the cells and calculated as the degree of upregulation (fold) compared to the respective control at each time (see FIGS. 4A-4C). […]

[6] = system: key mediators of labor in fetal membrane explants; assay: rhPBEF treatment of fetal membrane explants, gene chip analysis (Affymetrix); conditions: rhPBEF 100 ng/ml, 4 hours
Procedure: Fetal membranes from three patients were cut into several 3×3 cm explants. One explant was used to check for infection. Another explant was treated with 100 ng/ml rhPBEF in minimal media for 4 hours, an adjacent explant was used as a control and was incubated in minimal media only for the same period. At the end of this time, total RNA was extracted using the RNeasy Maxi kit (Qiagen Inc., Valencia, Calif.). These RNAs were run in pairs (explants treated and controls from each of the patients), were reverse-transcribed and the resulting cDNAs/cRNAs labeled with tracking fluorescent dyes and hybridized to DNA microchips (Affymetrix Inc.) containing 22,000 gene transcripts. The binding of the fluorescent fragments was proportional to the abundance of the gene in the original samples. Therefore changes in gene expression result in signal differences. […] The Affymetrix system has numerous controls built into the methodology in order to minimize false positive results.

B1: rhPBEF: recombinant human pre-B cell colony-enhancing factor produced in a bacterial system using pTrcHis2 vector (protein)
chain: MNPAAEAEFNILLATDSYKVTHYKQYPPNTSKVYSYFECREKKTENSKLRKVKYEETVFYGLQYILNKYLKGKVVTKEKIQEAKDVYKEHFQDDVFNEKGWNYILEKYDGHLPIEIKAVPEGFVIPRGNVLFTVENTDPECYWLTNWIETILVQSWYPITVATNSREQKKILAKYLLETSGNLDGLEYKLHDFGYRGVSSQETAGIGASAHLVNFKGTDTVAGLALIKKYYGTKDPVPGYSVPAAEHSTITAWGKDHEKDAFEHIVTQFSSVPVSVVSDSYDIYNACEKIWGEDLRHLIVSRSTQAPLIIRPDSGNPLDTVLKVLEILGKKFPVTENSKGYKLLPPYLRVIQGDGVDINTLQEIVEGMKQKMWSIENIAFGSGGGLLQKLTRDLLNCSFKCSYVVTNGLGINVFKDPVADPNKRSKKGRLSLHRTPAGNFVTLEEGKGDLEEYGQDLLHTVFKNGKVTKSYSFDEIRKNAQLNIELEAAHH
With B1 the “upregulation of IL-8 gene expression” value [1] was 120%, the “upregulation of IL-8 gene expression” value ([1]; listed as PBEF) was 120% and the “upregulation of IL-8 gene expression” value ([1]; listed as RhPBEF) was “significant (p<0.05) increase”. For the same molecule, the “increase in IL-8 gene expression” value [2] was “absent”, the “upregulation of IL-6 gene expression” value [3] was 40% and the “increase in secreted IL-8 (ELISA)” value [4] was 15%. The “increase in IL-6 gene expression” value ([5]; rhPBEF 1 ng/ml) was 15%, the “increase in IL-6 gene expression” value ([5]; rhPBEF 10 ng/ml) was 29% and the “increase in IL-6 gene expression” value ([5]; rhPBEF 100 ng/ml) was 44%. For the same molecule, the “IL-6 gene expression, dose dependence” value ([5]; rhPBEF 1, 10 and 100 ng/ml, 4h) was “dose-dependent increase”, the COX-2 gene expression [6] was “stimulates; also recorded: significantly upregulated” and the GRO-γ gene expression [6] was “significantly upregulated”. The IL-1β gene expression [6] was “stimulates; also recorded: significantly upregulated”, the IL-6 gene expression [6] was “stimulates; also recorded: significantly upregulated” and the MIP-1α gene expression [6] was “significantly upregulated”. For the same molecule, the MIP-1β gene expression [6] was “significantly upregulated” and the TNF-α gene expression [6] was “stimulates; also recorded: significantly upregulated”.
